# Laboratory results taken from patent US20220332827A1 (WUXI BIOLOGICS IRELAND, published 2022).
# T1: human PD-L2 on the cell surface (human, UniProt Q9BQ51 20-273)
# T1 construct: whole, on cells; also called cell surface human PD-L2
# T1 sequence (looked up): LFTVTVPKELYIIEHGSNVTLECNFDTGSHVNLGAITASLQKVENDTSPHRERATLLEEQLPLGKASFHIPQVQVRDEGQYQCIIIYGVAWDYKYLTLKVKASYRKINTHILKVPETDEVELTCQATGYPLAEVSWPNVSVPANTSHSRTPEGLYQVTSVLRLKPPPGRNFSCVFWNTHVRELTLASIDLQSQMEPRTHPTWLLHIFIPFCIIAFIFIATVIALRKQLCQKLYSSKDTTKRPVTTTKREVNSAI
# Tests used:
# [1] = target: human PD-L1 protein (soluble, ELISA antigen and SPR analyte) (human) (UniProt Q9NZQ7); test: ELISA, scFv; parameters: unit not given here
# [2] = target: cynomolgus monkey PD-L1 protein (soluble) (cynomolgus monkey) (UniProt G7PSE7); test: ELISA, scFv; parameters: unit not given here
# [3] = target: mouse PD-L1 protein (soluble) (mouse) (UniProt Q9EP73); test: ELISA, scFv; parameters: unit not given here
# [4] = target: T2, human PD-L1 protein (soluble, ELISA antigen and SPR analyte) (human, UniProt Q9NZQ7 19-238); test: SPR
# T2 construct: biotinylated in the capture ELISA; also called PD-L1 (human)
# [5] = target: T3, human PD-L1 on the cell surface (CHO-K1 cells expressing human PD-L1) (human, UniProt Q9NZQ7 19-290); test: FACS on cells expressing human PD-L1, goat anti-human IgG Fc FITC
# T3 construct: the positions are those of the human PD-L1 alanine scan; also called cell surface human PD-L1; B7-H1
# Experimental: (§1) Cross-reactivity was measured by FACS. […] Testing antibodies were diluted in wash buffer (1><PBS/1% BSA) and incubated with cells at 4° C. for 1 hour. After washing, the secondary antibody goat anti-human IgG Fc FITC (Jackson ImmunoResearch Lab) was added and incubated at 4° C. in the dark for 1 hour. The cells were then washed once and resuspended in 1><PBS/1% BSA, and analyzed by flow cytometry (BD).
# [6] = target: T4, cynomolgus PD-L1 on the cell surface (cynomolgus, UniProt G7PSE7 19-290); test: FACS on cells expressing cynomolgus PD-L1, goat anti-human IgG Fc FITC
# T4 construct: also called cell surface cynomolgus PD-L1
# Experimental: as §1
# [7] = target: T5, mouse PD-L1 on the cell surface (mouse, UniProt Q9EP73 19-290); test: FACS competition: antibody against mouse Fc fusion-mouse PD-1 binding to cells expressing mouse PD-L1
# T5 construct: whole, on cells; also called cell surface mouse PD-L1
# [8] = target: T3, human PD-L1 on the cell surface (CHO-K1 …); test: FACS epitope binning: antibody mixed with biotinylated WBP315BMK1 on CHO-K1 cells expressing human PD-L1, Streptavidin-PE
# Experimental: (§2) CHO-K 1 cells expressing human PD-L1on the cell surface were incubated with the mixture of biotinylated benchmark antibodies and testing antibodies (serially diluted in wash buffer) at 4° C. for 1 hour. The cells were washed and the second antibody Streptavidin-PE were added and incubated for 30 min at 4° C. The cells were then washed once and resuspended in 1><PBS/1% BSA, and analyzed by flow cytometery.
# [9] = target: T3, human PD-L1 on the cell surface (CHO-K1 …); test: FACS competition: antibody against mouse Fc fusion-human PD-1 binding to cells expressing human PD-L1
# [10] = target: T3, human PD-L1 on the cell surface (CHO-K1 …); test: FACS epitope binning: antibody mixed with biotinylated WBP315BMK6 on CHO-K1 cells expressing human PD-L1, Streptavidin-PE
# Experimental: as §2
# [11] = target: T5, mouse PD-L1 on the cell surface; test: FACS on cells expressing mouse PD-L1, goat anti-human IgG Fc FITC
# Experimental: as §1
# [12] = target: T1, human PD-L2 on the cell surface; test: FACS on PD-L2+ CHO-K1 cells, goat anti-human IgG Fc FITC (cross-family test)
# Experimental: Testing antibodies were diluted in wash buffer (1><PBS/1% BSA) and incubated with cells at 4° C. for 1 hour. After washing, the secondary antibody goat anti-human IgG Fc FITC (Jackson ImmunoResearch Lab) was added and incubated at 4° C. in the dark for 1 hour. The cells were then washed once and resuspended in 1><PBS/1% BSA, and analyzed by flow cytometry (BD).
# [13] = target: T6, cynomolgus monkey PD-L1 protein (soluble) (cynomolgus monkey, UniProt G7PSE7 19-238); test: SPR, antibody captured on Protein A, PD-L1 as analyte
# T6 construct: also called cyno PD-L1
# Experimental: (§3) Antibodies were characterized for affinity and binding kinetics to PD-L1by SPR assay using ProteOn XPR36 (Bio-Rad). Protein A protein (Sigma) was immobilized to a GLM sensor chip (Bio-Rad) through amine coupling. Purified antibodies were flowed over the sensor chip and captured by the Protein A. The chip was rotated 90° and washed with running buffer (1 ><PBS/0.05% Tween20, Bio-Rad) until the baseline was stable. Five concentrations of human or cynomolgus monkey PD-L1and running buffer were flowed through the sensor chip at a flow rate of 100 μL/min for an association phase of 240s, followed by 600s dissociation. […] The chip was regenerated with pH 1.5 H₃PO₄ after each run. The association and dissociation curve was fit by 1:1 Langmuir binding model using ProteOn software.
# [14] = target: T2, human PD-L1 protein (soluble, ELISA …); test: as above
# Experimental: as §3
# T3 sequence (Q9NZQ7 19-290 limits assumed): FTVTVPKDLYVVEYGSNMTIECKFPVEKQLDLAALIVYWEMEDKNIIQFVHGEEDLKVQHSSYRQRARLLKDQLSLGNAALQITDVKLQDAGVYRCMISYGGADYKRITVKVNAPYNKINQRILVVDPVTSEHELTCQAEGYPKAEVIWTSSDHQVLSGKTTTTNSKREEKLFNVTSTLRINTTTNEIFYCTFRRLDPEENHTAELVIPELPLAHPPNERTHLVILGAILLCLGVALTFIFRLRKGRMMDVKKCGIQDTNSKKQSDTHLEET
# T2 sequence (Q9NZQ7 19-238 limits assumed): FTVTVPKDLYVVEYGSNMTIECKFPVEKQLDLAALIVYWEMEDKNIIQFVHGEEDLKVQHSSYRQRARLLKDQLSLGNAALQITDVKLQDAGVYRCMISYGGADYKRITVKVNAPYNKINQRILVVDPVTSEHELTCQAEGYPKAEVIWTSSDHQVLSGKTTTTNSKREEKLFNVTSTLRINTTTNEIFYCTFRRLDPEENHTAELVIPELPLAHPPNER
# T6 sequence (G7PSE7 entry or part of it limits assumed): as the sequence (Q9NZQ7 19-238 limits assumed) above, with A33T, A34S, S62N, R68Q, Q82R, F173L, T185A, T192I, H215L counted along it
# T5 sequence (Q9EP73 19-290): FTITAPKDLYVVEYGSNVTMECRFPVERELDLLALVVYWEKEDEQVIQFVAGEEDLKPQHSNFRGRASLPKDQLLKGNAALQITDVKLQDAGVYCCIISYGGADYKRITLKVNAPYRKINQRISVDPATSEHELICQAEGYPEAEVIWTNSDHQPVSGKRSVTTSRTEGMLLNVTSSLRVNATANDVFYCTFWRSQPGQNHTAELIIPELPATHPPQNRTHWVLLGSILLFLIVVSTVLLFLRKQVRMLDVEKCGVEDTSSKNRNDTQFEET
# Chain of human PD-L1 protein (soluble, ELISA antigen and SPR analyte) (human) (Q9NZQ7 19-238 limits assumed): as the sequence (Q9NZQ7 19-238 limits assumed) above
# Chain of cynomolgus monkey PD-L1 protein (soluble) (cynomolgus monkey) (G7PSE7 entry or part of it limits assumed): as the sequence (Q9NZQ7 19-238 limits assumed) above, with A33T, A34S, S62N, R68Q, Q82R, F173L, T185A, T192I, H215L counted along it
# T4 sequence (G7PSE7 entry or part of it limits assumed): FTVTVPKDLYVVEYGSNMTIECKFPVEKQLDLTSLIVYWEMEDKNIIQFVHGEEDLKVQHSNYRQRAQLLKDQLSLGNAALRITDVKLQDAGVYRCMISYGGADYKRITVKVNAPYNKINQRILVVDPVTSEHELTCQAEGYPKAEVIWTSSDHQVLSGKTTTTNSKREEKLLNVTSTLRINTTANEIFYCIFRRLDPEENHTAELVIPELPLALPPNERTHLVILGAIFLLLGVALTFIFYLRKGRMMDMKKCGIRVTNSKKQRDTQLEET
# Chain of mouse PD-L1 protein (soluble) (mouse) (Q9EP73 19-238 limits assumed): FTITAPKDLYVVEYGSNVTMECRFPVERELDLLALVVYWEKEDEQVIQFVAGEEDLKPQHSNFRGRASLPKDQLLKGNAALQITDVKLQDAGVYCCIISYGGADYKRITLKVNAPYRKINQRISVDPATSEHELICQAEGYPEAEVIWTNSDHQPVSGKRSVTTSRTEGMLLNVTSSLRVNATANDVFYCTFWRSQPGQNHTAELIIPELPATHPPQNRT
Bmax [1],Bmax [2],Bmax [3],koff [4],EC50 (read off the curve) [5],EC50 (read off the curve) [6],IC50 (read off the curve) [7],IC50 (read off the curve) [8],IC50 (read off the curve) [9],IC50 (read off the curve) [10],EC50 (read off the curve) [11],Kd [13],koff [13],kon [13],Kd [14],koff [14],kon [14],Binder,binding result [12]
3.22,2.4,3.46,–,–,–,–,–,–,–,–,–,–,–,–,–,–,"W3152-r11.135.5-zAb17-m6 (scFv) (scFv, part only; not given: linker, domain order, tag, V domains shown, not shown: another chain or arm of the molecule; small tags and cut ends) VH: QVQLQESGPGLVKPSETLSLTCTVSGFSLTENSVSWIRQPPGKGLEWIGAVWSSGSTDYNSALKSRVTISRDTSKNQFSLKLSSVTAADTAVYYCTRSTYSNDFYYYFDYWGQGTMVTVSS VL: SYELTQPPSVSVSPGQTASITCSGSELPKRYAYWYQQKPGQSIVRVIYKDSERPSGISERFSGSSSGNTATLTISGTQAMDEADYYCSSTYGDRKLPIFGGGTKLTVL",–
–,–,–,0.00103 s⁻¹,~0.2 nM,~1 nM,~2 nM,~0.6 nM,~0.1 nM,~2 nM,~2 nM,0.403 nM,0.00101 s⁻¹,2.52e+06 M⁻¹ s⁻¹,0.514 nM,0.00145 s⁻¹,2.81e+06 M⁻¹ s⁻¹,"W3152-r11.135.5-zAb17-m6-uIgG4L (antibody, V domains shown, also called W3152-r11.135.5-zAb17-m6-IgG4L) VH: QVQLQESGPGLVKPSETLSLTCTVSGFSLTENSVSWIRQPPGKGLEWIGAVWSSGSTDYNSALKSRVTISRDTSKNQFSLKLSSVTAADTAVYYCTRSTYSNDFYYYFDYWGQGTMVTVSS VL: SYELTQPPSVSVSPGQTASITCSGSELPKRYAYWYQQKPGQSIVRVIYKDSERPSGISERFSGSSSGNTATLTISGTQAMDEADYYCSSTYGDRKLPIFGGGTKLTVLG",no binding (tested: concentration not shown)
